Measured values: publication doi:10.1101/2020.01.07.897124 (bioRxiv, 2020)
Read-outs that look alike come from different tables or passages of the source.

Tests used:
cryo-EM structure [1] = target: the molecule itself; experiment: cryo-EM structure
cryo-EM structure [2] = target: the molecule itself; experiment: cryo-EM structure; remark: listed apart in the source

Protein | stoichiometry N (cryo-EM structure [1]) | stoichiometry N (cryo-EM structure [2])
human SOAT1-dimer (66-550), purified, tags removed (domain or fragment, UniProt P35610 66-550, looked up) MKEVGSHFDDFVTNLIEKSASLDNGGCALTTFSVLEGEKNNHRAKDLRAPPEQGKIFIARRSLLDELLEVDHIRTIYHMFIALLILFILSTLVVDYIDEGRLVLEFSLLSYAFGKFPTVVWTWWIMFLSTFSVPYFLFQHWATGYSKSSHPLIRSLFHGFLFMIFQIGVLGFGPTYVVLAYTLPPASRFIIIFEQIRFVMKAHSFVRENVPRVLNSAKEKSSTVPIPTVNQYLYFLFAPTLIYRDSYPRNPTVRWGYVAMKFAQVFGCFFYVYYIFERLCAPLFRNIKQEPFSARVLVLCVFNSILPGVLILFLTFFAFLHCWLNAFAEMLRFGDRMFYKDWWNSTSYSNYYRTWNVVVHDWLYYYAYKDFLWFFSKRFKSAAMLAVFAVSAVVHEYALAVCLSFFYPVLFVLFMFFGMAFNFIVNDSRKKPIWNVLMWTSLFLGNGVLLCFYSQEWYARQHCPLKNPTFLDYVRPRSWTCRYVF | 2 | –
human SOAT1 full-length (1-550), purified, tags removed (enzyme, UniProt P35610 1-550, looked up) MVGEEKMSLRNRLSKSRENPEEDEDQRNPAKESLETPSNGRIDIKQLIAKKIKLTAEAEELKPFFMKEVGSHFDDFVTNLIEKSASLDNGGCALTTFSVLEGEKNNHRAKDLRAPPEQGKIFIARRSLLDELLEVDHIRTIYHMFIALLILFILSTLVVDYIDEGRLVLEFSLLSYAFGKFPTVVWTWWIMFLSTFSVPYFLFQHWATGYSKSSHPLIRSLFHGFLFMIFQIGVLGFGPTYVVLAYTLPPASRFIIIFEQIRFVMKAHSFVRENVPRVLNSAKEKSSTVPIPTVNQYLYFLFAPTLIYRDSYPRNPTVRWGYVAMKFAQVFGCFFYVYYIFERLCAPLFRNIKQEPFSARVLVLCVFNSILPGVLILFLTFFAFLHCWLNAFAEMLRFGDRMFYKDWWNSTSYSNYYRTWNVVVHDWLYYYAYKDFLWFFSKRFKSAAMLAVFAVSAVVHEYALAVCLSFFYPVLFVLFMFFGMAFNFIVNDSRKKPIWNVLMWTSLFLGNGVLLCFYSQEWYARQHCPLKNPTFLDYVRPRSWTCRYVF | – | 4
